{"source": "patent US20250361298A1", "binders": {"B1": {"name": "20A12.QNTv12 (antibody, from another filing, V domains shown)", "VH": "EVQLLESGGGLVQPGGSLRLSCAASGFDFVNNAMIWVRQAPGKGLEWVSALSFADNTAYYATWASGRFTISRDSSKTTVYLQMNSLRAEDTAVYYCMRGDLWGPGTLVTVSS", "VL": "DIQMTQSPSTLSASVGDRVTITCQASESITRYLNWYQQKPGKAPKLLIYDASKLPSGVPSRFSGSGSGTEFTLTISSLQPDDFATYYCQSTSFRGRSYQNTFGGGTKVEIKR"}}, "key": {"[1]": {"target": "T1, Human LY6G6D ectodomain fused to mouse IgG2A Fc (monovalent display, knob-in-hole) (human)", "T1 sequence (O95868 whole entry, looked up)": "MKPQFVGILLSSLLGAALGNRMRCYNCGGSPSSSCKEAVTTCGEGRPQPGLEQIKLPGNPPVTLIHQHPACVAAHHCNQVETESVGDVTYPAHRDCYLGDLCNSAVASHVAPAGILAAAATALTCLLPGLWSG", "assay": "SPR, Biacore 8K+, LY6G6D-mouse Fc captured by anti-mouse antibody on CM5, antibody as analyte 50-0.7813 nM, 25 C"}, "[2]": {"target": "Cynomolgus LY6G6D ectodomain fused to mouse IgG2A Fc (monovalent display, knob-in-hole) (cynomolgus)", "sequence (O95868 other isoform, or with tags, fused parts or gaps limits assumed)": "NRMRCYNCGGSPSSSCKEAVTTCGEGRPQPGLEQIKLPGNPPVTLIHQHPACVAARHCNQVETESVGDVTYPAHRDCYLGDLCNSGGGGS", "assay": "SPR, Biacore 8K+, cyno LY6G6D-mouse Fc captured by anti-mouse antibody on CM5, antibody as analyte 50-0.7813 nM, 25 C"}}}
{"binder": "B1", "values": [{"measurement": "Kd", "setting": "[1]", "value": 3.67, "unit": "nM"}, {"measurement": "kon", "setting": "[1]", "value": 109000, "unit": "M⁻¹ s⁻¹"}, {"measurement": "Kd", "setting": "[2]", "value": 3.4, "unit": "nM"}, {"measurement": "koff", "setting": "[2]", "value": 0.00038, "unit": "s⁻¹"}, {"measurement": "kon", "setting": "[2]", "value": 112000, "unit": "M⁻¹ s⁻¹"}]}
